From paper PMC11432383

Experiments:
[1] = target: SyMRP, MoxR AAA+ ATPase of Synechococcus sp. strain NKBG15041c, with a His-tag at the C-terminus (Synechococcus sp. strain NKBG15041c); test: negative-stain transmission electron microscopy; carbon-coated copper grids, 2.5% uranyl acetate, 50,000x, 100 kV
[2] = target: SyMRP, MoxR AAA+ ATPase of Synechococcus sp. strain NKBG15041c, with a His-tag at the C-terminus (Synechococcus sp. strain NKBG15041c); test: AUC; sedimentation velocity, 2.0 mg/mL SyMRP, 50 mM Tris-HCl pH 8.0, 200 mM NaCl, without ATP, 25 °C, 60,000 rpm, interference optics, SEDFIT
[3] = target: SyMRP, MoxR AAA+ ATPase of Synechococcus sp. strain NKBG15041c, with a His-tag at the C-terminus (Synechococcus sp. strain NKBG15041c); test: SEC; HPLC gel filtration column SB-804HQ, 50 mM Tris-HCl pH 7.5, 0.1 mM EDTA, 150 mM NaCl, 0.5 mL/min; mass from marker proteins (apparent)
[4] = target: SyMRP, MoxR AAA+ ATPase of Synechococcus sp. strain NKBG15041c, with a His-tag at the C-terminus (Synechococcus sp. strain NKBG15041c); test: AUC; sedimentation velocity, 2.0 mg/mL SyMRP, 50 mM Tris-HCl pH 8.0, 200 mM NaCl, with 1 mM ATP, 25 °C, 60,000 rpm, interference optics, SEDFIT
[5] = target: SyMRP, MoxR AAA+ ATPase of Synechococcus sp. strain NKBG15041c, with a His-tag at the C-terminus (Synechococcus sp. strain NKBG15041c); test: atomic force microscopy; high-speed AFM, sample on Ni2+-coated mica, washed with 50 mM Tris-HCl pH 7.5
[6] = target: SyMRP, MoxR AAA+ ATPase of Synechococcus sp. strain NKBG15041c, with a His-tag at the C-terminus (Synechococcus sp. strain NKBG15041c); test: AUC; sedimentation velocity, 2.0 mg/mL SyMRP, 50 mM Tris-HCl pH 8.0, 200 mM NaCl, without ATP, 25 °C, 60,000 rpm, interference optics, SEDFIT; remark: listed apart in the source

stoichiometry N [1]: 6 | stoichiometry N [2]: 6 | weight fraction w of the 4.18 S component (small oligomer) [2]: 4% | weight fraction w of the 7.60 S component (hexamer) [2]: 91.4% | stoichiometry N [3]: 6 | weight fraction w of the 4.26 S component (small oligomer) [4]: 2.6% | weight fraction w of the 7.53 S component (main component) [4]: 90.9% | stoichiometry N [5]: 6 | stoichiometry N [6]: 2
Substance: SyMRP, MoxR AAA+ ATPase of Synechococcus sp. strain NKBG15041c, with a His-tag at the C-terminus (enzyme)
